We go through 27 molecules from patent US20180155451A1 (published 2018).

The chains are these.
T1: FcγRIIb extracellular domain with C-terminal His tag (human, UniProt P31994 43-217)
T1 construct: extracellular domain; expressed in FreeStyle293 cells; analyte in the Biacore assay; also called FcgRIIb; 2b; not shown: His tag at the C terminus
T1 sequence (looked up): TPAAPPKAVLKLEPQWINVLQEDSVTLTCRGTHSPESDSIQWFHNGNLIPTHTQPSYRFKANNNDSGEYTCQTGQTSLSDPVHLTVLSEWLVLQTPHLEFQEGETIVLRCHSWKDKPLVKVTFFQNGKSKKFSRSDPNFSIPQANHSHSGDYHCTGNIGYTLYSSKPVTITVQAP

B1: GpH7-B3 variant I332_14T/GpL16-k0 (antibody, human IgG1, kappa)
heavy: not shown
light: DIVMTQSPLSLPVTPGEPASISCQASESLVHSNRNTYLHWYLQKPGQSPQLLIYKVSNRFSGVPDRFSGSGSGTDFTLKISRVEAEDVGVYYCSQNTHVPPTFGQGTKVEIERTVAAPSVFIFPPSDEQLKSGTASVVCLLNNFYPREAKVQWKVDNALQSGNSQESVTEQDSKDSTYSLSSTLTLSKADYEKHKVYACEVTHQGLSSPVTKSFNRGEC
notes: homodimerized; mutation in both H chains; label printed T332_14T, read as I332_14T; also called Ho Ab I332_14T
B2: GpH7-B3 variant I336_08L/GpL16-k0 (antibody, human IgG1, kappa)
heavy: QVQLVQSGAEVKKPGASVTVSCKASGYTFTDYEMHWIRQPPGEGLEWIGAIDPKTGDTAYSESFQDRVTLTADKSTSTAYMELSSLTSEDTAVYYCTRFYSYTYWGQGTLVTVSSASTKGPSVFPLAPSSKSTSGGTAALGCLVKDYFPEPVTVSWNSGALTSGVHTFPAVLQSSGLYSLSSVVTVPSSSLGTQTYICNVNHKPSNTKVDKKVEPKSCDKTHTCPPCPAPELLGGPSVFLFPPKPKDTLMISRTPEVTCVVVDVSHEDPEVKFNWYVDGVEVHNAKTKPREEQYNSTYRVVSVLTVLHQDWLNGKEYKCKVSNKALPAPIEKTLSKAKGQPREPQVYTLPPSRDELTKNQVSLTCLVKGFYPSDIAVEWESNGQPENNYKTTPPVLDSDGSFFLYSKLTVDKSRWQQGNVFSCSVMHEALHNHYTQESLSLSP
light: B1 light
notes: homodimerized; mutation in both H chains; also called Ho Ab I336_08L
B3: GpH7-B3 variant P238_09D/GpL16-k0 (antibody, human IgG1, kappa)
heavy: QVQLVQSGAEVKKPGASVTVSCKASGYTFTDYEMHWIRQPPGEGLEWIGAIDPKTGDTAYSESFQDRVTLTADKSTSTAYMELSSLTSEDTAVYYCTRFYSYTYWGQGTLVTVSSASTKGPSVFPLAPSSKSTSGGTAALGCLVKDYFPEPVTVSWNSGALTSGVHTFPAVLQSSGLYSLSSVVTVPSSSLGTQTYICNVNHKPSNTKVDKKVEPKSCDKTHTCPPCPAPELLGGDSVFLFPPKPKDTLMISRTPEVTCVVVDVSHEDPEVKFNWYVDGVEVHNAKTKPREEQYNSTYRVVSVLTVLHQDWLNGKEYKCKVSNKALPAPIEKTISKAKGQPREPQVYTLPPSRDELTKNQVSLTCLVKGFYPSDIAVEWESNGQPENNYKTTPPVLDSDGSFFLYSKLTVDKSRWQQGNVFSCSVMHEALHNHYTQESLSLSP
light: B1 light
notes: homodimerized; mutation in both H chains; also called Ho Ab P238_09D
B4: GpH7-B3 variant S324_06M/GpL16-k0 (antibody, human IgG1, kappa)
heavy: not shown
light: B1 light
notes: homodimerized; mutation in both H chains; also called Ho Ab S324_06M
B5: GpH7-B3 variant S267_19Q/GpL16-k0 (antibody, human IgG1, kappa)
heavy: not shown
light: B1 light
notes: homodimerized; mutation in both H chains; also called Ho Ab S267_19Q
B6: GpH7-B3 variant P331_20W/GpL16-k0 (antibody, human IgG1, kappa)
heavy: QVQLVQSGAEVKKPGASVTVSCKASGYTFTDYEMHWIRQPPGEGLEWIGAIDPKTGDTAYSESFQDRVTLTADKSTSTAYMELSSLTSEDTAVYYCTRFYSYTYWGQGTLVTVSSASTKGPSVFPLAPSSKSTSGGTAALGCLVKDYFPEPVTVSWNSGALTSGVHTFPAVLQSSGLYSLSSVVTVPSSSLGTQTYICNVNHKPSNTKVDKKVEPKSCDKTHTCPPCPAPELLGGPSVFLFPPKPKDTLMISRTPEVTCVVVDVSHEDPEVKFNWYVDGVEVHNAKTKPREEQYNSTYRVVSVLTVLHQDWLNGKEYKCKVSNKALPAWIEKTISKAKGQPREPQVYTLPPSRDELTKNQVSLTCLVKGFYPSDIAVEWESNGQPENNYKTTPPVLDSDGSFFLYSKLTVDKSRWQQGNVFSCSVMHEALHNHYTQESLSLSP
light: B1 light
notes: homodimerized; mutation in both H chains; also called Ho Ab P331_20W
B7: GpH7-B3 variant K326_15Y/GpL16-k0 (antibody, human IgG1, kappa)
heavy: not shown
light: B1 light
notes: homodimerized; mutation in both H chains; also called Ho Ab K326_15Y
B8: GpH7-B3 variant K326_19Q/GpL16-k0 (antibody, human IgG1, kappa)
heavy: not shown
light: B1 light
notes: homodimerized; mutation in both H chains; label printed K326_190, read as K326_19Q; also called Ho Ab K326_19Q
B9: GpH7-B3 variant K326_06M/GpL16-k0 (antibody, human IgG1, kappa)
heavy: not shown
light: B1 light
notes: homodimerized; mutation in both H chains; also called Ho Ab K326_06M
B10: GpH7-B3 variant K326_16H/GpL16-k0 (antibody, human IgG1, kappa)
heavy: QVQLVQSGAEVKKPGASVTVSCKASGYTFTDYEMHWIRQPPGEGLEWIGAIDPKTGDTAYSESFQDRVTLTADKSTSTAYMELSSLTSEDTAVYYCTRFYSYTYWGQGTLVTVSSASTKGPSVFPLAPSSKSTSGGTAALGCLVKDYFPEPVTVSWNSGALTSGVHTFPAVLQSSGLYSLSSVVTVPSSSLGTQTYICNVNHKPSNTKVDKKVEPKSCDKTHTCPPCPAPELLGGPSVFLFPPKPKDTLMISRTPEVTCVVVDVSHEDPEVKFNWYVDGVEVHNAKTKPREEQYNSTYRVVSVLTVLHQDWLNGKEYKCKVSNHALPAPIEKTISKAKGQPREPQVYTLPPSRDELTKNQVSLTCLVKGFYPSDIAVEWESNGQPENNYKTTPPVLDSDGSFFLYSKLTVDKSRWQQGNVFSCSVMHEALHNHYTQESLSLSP
light: B1 light
notes: homodimerized; mutation in both H chains; also called Ho Ab K326_16H
B11: GpH7-B3 variant H268_09D/GpL16-k0 (antibody, human IgG1, kappa)
heavy: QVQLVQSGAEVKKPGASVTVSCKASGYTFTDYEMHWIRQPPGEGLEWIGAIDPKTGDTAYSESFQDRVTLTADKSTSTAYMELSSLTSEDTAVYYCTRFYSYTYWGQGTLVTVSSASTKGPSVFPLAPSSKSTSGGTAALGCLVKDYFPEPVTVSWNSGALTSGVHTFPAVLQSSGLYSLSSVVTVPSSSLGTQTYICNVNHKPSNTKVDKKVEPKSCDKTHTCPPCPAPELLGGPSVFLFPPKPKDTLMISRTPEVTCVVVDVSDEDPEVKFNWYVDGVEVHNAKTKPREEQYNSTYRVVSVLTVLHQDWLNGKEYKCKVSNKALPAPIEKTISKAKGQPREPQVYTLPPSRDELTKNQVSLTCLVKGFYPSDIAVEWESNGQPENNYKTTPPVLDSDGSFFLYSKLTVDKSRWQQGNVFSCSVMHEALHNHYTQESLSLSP
light: B1 light
notes: homodimerized; mutation in both H chains; also called Ho Ab H268_09D
B12: GpH7-B3 variant I332_06M/GpL16-k0 (antibody, human IgG1, kappa)
heavy: not shown
light: B1 light
notes: homodimerized; mutation in both H chains; also called Ho Ab I332_06M
B13: GpH7-B3 variant K334_03V/GpL16-k0 (antibody, human IgG1, kappa)
heavy: not shown
light: B1 light
notes: homodimerized; mutation in both H chains; also called Ho Ab K334_03V
B14: GpH7-B3 variant P331_15Y/GpL16-k0 (antibody, human IgG1, kappa)
heavy: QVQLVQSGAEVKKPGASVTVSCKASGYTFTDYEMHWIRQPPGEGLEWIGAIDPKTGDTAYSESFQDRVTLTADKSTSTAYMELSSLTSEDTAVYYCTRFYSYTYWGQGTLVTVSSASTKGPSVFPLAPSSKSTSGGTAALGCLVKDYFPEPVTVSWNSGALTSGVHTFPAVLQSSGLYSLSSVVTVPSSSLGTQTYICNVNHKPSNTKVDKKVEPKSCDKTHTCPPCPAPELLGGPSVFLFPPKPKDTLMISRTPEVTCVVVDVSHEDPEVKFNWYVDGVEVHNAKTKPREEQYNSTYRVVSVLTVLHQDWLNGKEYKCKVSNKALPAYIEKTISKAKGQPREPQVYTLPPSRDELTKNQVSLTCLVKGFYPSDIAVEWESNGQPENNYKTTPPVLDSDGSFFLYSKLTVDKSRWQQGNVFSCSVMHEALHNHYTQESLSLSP
light: B1 light
notes: homodimerized; mutation in both H chains; also called Ho Ab P331_15Y
B15: GpH7-B3 variant K326_04F/GpL16-k0 (antibody, human IgG1, kappa)
heavy: not shown
light: B1 light
notes: homodimerized; mutation in both H chains; also called Ho Ab K326_04F
B16: GpH7-B3 variant L328_13S/GpL16-k0 (antibody, human IgG1, kappa)
heavy: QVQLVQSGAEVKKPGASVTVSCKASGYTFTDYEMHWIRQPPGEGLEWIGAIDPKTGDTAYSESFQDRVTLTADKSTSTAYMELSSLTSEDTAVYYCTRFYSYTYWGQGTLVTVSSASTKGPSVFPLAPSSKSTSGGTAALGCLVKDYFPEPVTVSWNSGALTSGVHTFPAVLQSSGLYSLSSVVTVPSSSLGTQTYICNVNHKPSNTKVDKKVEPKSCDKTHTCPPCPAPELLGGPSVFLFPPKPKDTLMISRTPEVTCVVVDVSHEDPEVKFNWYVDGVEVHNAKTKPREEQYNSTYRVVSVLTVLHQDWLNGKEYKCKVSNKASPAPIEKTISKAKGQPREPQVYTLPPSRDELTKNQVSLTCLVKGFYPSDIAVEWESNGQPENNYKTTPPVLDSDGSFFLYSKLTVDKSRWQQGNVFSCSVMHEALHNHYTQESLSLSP
light: B1 light
notes: homodimerized; mutation in both H chains; also called Ho Ab L328_13S
B17: GpH7-B3 variant T335_15Y/GpL16-k0 (antibody, human IgG1, kappa)
heavy: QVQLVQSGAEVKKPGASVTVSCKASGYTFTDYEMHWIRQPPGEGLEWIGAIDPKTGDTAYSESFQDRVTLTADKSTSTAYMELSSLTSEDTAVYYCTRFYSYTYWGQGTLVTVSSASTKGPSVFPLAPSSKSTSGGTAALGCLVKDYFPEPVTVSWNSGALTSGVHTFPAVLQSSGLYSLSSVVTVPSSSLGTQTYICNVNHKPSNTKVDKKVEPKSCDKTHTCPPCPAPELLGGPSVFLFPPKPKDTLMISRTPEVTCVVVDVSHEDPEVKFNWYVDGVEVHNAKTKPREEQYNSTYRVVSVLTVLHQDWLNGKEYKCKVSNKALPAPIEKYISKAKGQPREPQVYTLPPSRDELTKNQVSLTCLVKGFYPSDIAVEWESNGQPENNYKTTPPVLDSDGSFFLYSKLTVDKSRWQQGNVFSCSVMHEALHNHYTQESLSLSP
light: B1 light
notes: homodimerized; mutation in both H chains; also called Ho Ab T335_15Y
B18: GpH7-B3 variant L235_20W/GpL16-k0 (antibody, human IgG1, kappa)
heavy: not shown
light: B1 light
notes: homodimerized; mutation in both H chains; also called Ho Ab L235_20W
B19: GpH7-B3 variant K334_02A/GpL16-k0 (antibody, human IgG1, kappa)
heavy: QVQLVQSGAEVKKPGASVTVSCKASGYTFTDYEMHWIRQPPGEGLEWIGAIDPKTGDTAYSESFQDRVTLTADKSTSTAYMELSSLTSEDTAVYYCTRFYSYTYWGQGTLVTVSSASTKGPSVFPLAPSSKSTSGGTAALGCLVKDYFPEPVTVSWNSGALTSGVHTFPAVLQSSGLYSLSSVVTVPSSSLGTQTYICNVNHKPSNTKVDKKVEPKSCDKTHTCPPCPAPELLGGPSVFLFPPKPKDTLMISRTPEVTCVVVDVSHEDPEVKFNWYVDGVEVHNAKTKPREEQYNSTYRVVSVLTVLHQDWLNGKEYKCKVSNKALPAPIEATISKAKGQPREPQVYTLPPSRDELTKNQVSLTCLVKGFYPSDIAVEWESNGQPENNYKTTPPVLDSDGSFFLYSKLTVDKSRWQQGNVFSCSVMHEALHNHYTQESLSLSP
light: B1 light
notes: homodimerized; mutation in both H chains; also called Ho Ab K334_02A
B20: GpH7-B3 variant K334_08L/GpL16-k0 (antibody, human IgG1, kappa)
heavy: not shown
light: B1 light
notes: homodimerized; mutation in both H chains; also called Ho Ab K334_08L
B21: GpH7-B3 variant S337_16H/GpL16-k0 (antibody, human IgG1, kappa)
heavy: not shown
light: B1 light
notes: homodimerized; mutation in both H chains; also called Ho Ab S337_16H
B22: GpH7-B3 variant L328_02A/GpL16-k0 (antibody, human IgG1, kappa)
heavy: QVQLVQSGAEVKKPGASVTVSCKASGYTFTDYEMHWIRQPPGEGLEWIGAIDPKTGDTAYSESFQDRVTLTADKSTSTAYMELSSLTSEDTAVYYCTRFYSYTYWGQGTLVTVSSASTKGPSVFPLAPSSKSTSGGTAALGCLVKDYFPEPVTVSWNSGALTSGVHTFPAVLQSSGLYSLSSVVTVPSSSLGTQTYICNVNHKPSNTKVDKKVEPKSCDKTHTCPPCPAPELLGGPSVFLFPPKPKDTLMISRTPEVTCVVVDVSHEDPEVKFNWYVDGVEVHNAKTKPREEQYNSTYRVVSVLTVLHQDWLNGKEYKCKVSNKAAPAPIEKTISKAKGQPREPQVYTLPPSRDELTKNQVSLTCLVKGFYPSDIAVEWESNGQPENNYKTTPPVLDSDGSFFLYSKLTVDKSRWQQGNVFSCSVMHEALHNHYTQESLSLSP
light: B1 light
notes: homodimerized; mutation in both H chains; also called Ho Ab L328_02A
B23: GpH7-B3 variant K334_10E/GpL16-k0 (antibody, human IgG1, kappa)
heavy: not shown
light: B1 light
notes: homodimerized; mutation in both H chains; also called Ho Ab K334_10E
B24: GpH7-B3 variant H268_13S/GpL16-k0 (antibody, human IgG1, kappa)
heavy: not shown
light: B1 light
notes: homodimerized; mutation in both H chains; also called Ho Ab H268_13S
B25: GpH7-B3 variant K334_05P/GpL16-k0 (antibody, human IgG1, kappa)
heavy: not shown
light: B1 light
notes: homodimerized; mutation in both H chains; also called Ho Ab K334_05P
B26: GpH7-B3 variant I332_10E/GpL16-k0 (antibody, human IgG1, kappa)
heavy: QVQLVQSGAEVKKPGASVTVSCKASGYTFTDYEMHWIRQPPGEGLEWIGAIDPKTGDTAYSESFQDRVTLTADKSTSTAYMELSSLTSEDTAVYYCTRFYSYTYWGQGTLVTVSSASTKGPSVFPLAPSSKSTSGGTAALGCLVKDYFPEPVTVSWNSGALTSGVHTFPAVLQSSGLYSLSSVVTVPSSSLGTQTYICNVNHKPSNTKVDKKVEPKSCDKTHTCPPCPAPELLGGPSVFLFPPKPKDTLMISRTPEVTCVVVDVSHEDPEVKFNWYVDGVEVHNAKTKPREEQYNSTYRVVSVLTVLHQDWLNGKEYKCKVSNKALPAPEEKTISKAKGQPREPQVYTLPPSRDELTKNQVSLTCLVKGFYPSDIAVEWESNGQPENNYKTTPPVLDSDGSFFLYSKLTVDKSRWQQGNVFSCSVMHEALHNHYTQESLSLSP
light: B1 light
notes: homodimerized; mutation in both H chains; also called Ho Ab I332_10E
B27: GpH7-B3 variant P331_16H/GpL16-k0 (antibody, human IgG1, kappa)
heavy: not shown
light: B1 light
notes: homodimerized; mutation in both H chains; also called Ho Ab P331_16H

This experiment deals with T1, FcγRIIb extracellular domain with …. Put plainly: SPR (Biacore), captured antibody, FcγRIIb analyte; binding relative to GpH7-B3/GpL16-k0 = 100. In general terms: In SPR one partner is held on a chip, and binding of the other changes the refractive index at the surface.
As to B1, the Ho/Con_2b is 106 % of control.
The value for B2 was 103 % of control; that for B3 was 207 % of control; that for B4 was 104 % of control.
Next, B5: 185 % of control; B6: 111 % of control.
Regarding B7, the Ho/Con_2b was 162 % of control.
The value for B8 was 163 % of control; that for B9 was 193 % of control.
The value for B10 was 131 % of control; that for B11 was 298 % of control.
For B12, the Ho/Con_2b is 106 % of control.
For the molecule B13, the Ho/Con_2b is 145 % of control.
Turning to B14, the Ho/Con_2b was 111 % of control.
Regarding B15, the Ho/Con_2b is 160 % of control.
The value for B16 was 147 % of control.
Next, B17: 104 % of control; B18: 116 % of control.
For the molecule B19, the Ho/Con_2b is 110 % of control.
The value for B20 was 114 % of control.
As for B21, the Ho/Con_2b is 103 % of control.
On to B22, for which the Ho/Con_2b is 117 % of control.
Next, B23: 129 % of control; B24: 186 % of control.
Take B25: the Ho/Con_2b was 112 % of control.
The value for B26 was 181 % of control; that for B27 was 100 % of control.
